Data taken from publication doi:10.1101/521658 (bioRxiv, 2019).

Biological target: T1, 6HIS-Δ38NADKc-1, refolded (A. thaliana, UniProt Q0WUY1 39-534)
T1 sequence (looked up): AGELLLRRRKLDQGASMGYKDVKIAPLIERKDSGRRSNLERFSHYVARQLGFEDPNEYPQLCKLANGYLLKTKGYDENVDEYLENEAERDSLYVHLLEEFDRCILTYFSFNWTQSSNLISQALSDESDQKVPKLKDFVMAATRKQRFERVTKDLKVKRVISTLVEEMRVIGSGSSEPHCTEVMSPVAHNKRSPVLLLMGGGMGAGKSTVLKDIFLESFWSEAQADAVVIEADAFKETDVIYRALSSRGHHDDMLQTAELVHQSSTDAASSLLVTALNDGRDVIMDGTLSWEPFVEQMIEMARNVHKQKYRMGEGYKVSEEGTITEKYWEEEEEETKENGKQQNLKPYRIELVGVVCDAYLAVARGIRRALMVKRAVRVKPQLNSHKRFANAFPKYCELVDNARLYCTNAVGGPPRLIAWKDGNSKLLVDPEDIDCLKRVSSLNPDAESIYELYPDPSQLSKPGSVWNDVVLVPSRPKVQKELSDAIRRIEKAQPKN
Experiment: enzyme activity titration

B1: A. thaliana (At) CaM1 (natural protein)
chain: not shown
With B1 the Kd was 600 to 1000 pM.
